Data set [1] deals with T1, IM30-Venus, Venus-labeled Synechocystis IM30 (Synechocystis sp. PCC 6803, UniProt Q55707 1-267).
T1 construct: IM30 (VIPP1) of Synechocystis sp; PCC 6803; Venus fragment ligated into pRSET SynIM30 plasmid; purified as the His-tagged WT, so a His tag is likely present; also called Venus-labeled IM30 monomers; source: E. coli, copurified with IM30-CFP after mixing cell pellets prior to cell lysis
T1 sequence (looked up): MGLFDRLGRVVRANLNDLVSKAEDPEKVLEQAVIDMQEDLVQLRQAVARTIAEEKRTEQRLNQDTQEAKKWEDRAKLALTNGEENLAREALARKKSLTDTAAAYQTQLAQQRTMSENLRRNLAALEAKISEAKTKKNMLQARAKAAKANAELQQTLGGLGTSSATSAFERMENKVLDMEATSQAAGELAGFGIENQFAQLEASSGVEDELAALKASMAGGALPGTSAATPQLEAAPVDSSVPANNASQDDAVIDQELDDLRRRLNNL
The data set is described as follows: FRET or BRET; 0.2 µM purified CFP/Venus labeled IM30 rings (copurified from mixed cell pellets, 27% CFP and 63% Venus w/w), excitation 420 nm, RT, with 0-1000 µM DOPG liposomes. As to conditions: both partners purified.

Data set [2] concerns the molecule itself. Nature of the data set: SEC; Superose12 10/300 GL, 20 mM HEPES pH 7.6 with 0, 50, 100, 150 or 300 mM NaCl, 8 °C; IM30* at suitable NaCl concentrations.
Data set [3] deals with the molecule itself. Nature of the data set: cross-linking; disulfide between Cys227 of two protomers; SDS-PAGE of the purified A227C mutants in absence of reducing agents.
Data set [4] deals with the molecule itself. The data set is described as follows: atomic force microscopy; ~0.5 µM IM30 WT adsorbed on mica, 10 mM Tris or HEPES, 150 mM KCl, 25 mM MgCl2, pH 7.6; imaged in buffer at ~30 °C.
Data set [5] concerns the molecule itself. The data set is described as follows: SEC-MALS; Superdex 200 Increase 10/300 GL, 25 mM HEPES pH 7.5, 125 mM NaCl, 5% glycerol (w/w), RT.

Substitutions are numbered along the chain they refer to. Names may count otherwise.

B1: IM30-CFP, CFP-labeled Synechocystis IM30 (natural protein, Synechocystis sp. PCC 6803, UniProt Q55707 1-267, looked up)
chain: T1 sequence (looked up)
notes: IM30 (VIPP1) of Synechocystis sp; PCC 6803; CFP fragment ligated into pRSET SynIM30 plasmid; purified as the His-tagged WT, so a His tag is likely present; also called CFP labeled IM30 monomers; source: E. coli, copurified with IM30-Venus after mixing cell pellets prior to cell lysis
For the molecule B1, the binding result in data set [1] is given as “binds”.

B2: IM30* (E83A, E84A, F168A, E169A, R170A, M171A), oligomerization-impaired mutant of Synechocystis IM30 (natural protein, Synechocystis sp. PCC 6803, UniProt Q55707 1-267, looked up)
chain: T1 sequence (looked up) with E83A, E84A, F168A, E169A, R170A, M171A
notes: IM30 (VIPP1) of Synechocystis sp; PCC 6803, full length, with six alanine substitutions made by site-directed mutagenesis; For SEC-SAXS the protein was heated to 50 °C, cooled slowly and buffer-exchanged by SEC before the run; also called IM30* dimers
Consider B2, for which the “stoichiometry N” value in data set [2] turned out to be 2.

B3: IM30_A227C, A227C mutant of Synechocystis IM30 WT (natural protein, Synechocystis sp. PCC 6803, UniProt Q55707 1-267, looked up)
chain: T1 sequence (looked up) with A227C
notes: IM30 (VIPP1) of Synechocystis sp; PCC 6803, full length, with A227C; the methods print '(A272C)' in brackets after the name IM30_A227C, the results and the legend say A227C; also called A227C mutant of IM30 WT
With B3, the binding result in data set [3] is “binds”.

B4: IM30*_A227C (E83A, E84A, F168A, E169A, R170A, M171A, A227C) (natural protein, Synechocystis sp. PCC 6803, UniProt Q55707 1-267, looked up)
chain: T1 sequence (looked up) with E83A, E84A, F168A, E169A, R170A, M171A, A227C
notes: IM30 (VIPP1) of Synechocystis sp; PCC 6803, full length, the six alanine substitutions of IM30* and A227C in the linker between helix 6 and 7; also called A227C mutant of IM30*
In the case of B4, the binding result in data set [3] is reported as “binds”.

B5: inner membrane-associated protein of 30 kDa (IM30) wild type, N-terminally His-tagged, from Synechocystis sp. PCC 6803 (natural protein, UniProt Q55707 1-267, looked up)
chain: T1 sequence (looked up)
notes: IM30 (VIPP1) of Synechocystis sp; PCC 6803, full-length wild type; also called IM30 WT; VIPP1
In the case of B5, the binding result in data set [4] was “binds”.

B6: IM30_H3b-7 (amino acids 147-267), WT fragment of Synechocystis IM30 (domain or fragment, Synechocystis sp. PCC 6803, UniProt Q55707 147-267, looked up)
chain: KANAELQQTLGGLGTSSATSAFERMENKVLDMEATSQAAGELAGFGIENQFAQLEASSGVEDELAALKASMAGGALPGTSAATPQLEAAPVDSSVPANNASQDDAVIDQELDDLRRRLNNL
notes: IM30 (VIPP1) of Synechocystis sp; PCC 6803, amino acids 147-267 (helices 3b-7); also called helices 3b-7; intrinsically disordered C-terminus
Consider B6, for which, in data set [5], the “stoichiometry N” value was determined as 2.

The record behind these values is article PMC7577978, “IM30 IDPs form a membrane-protective carpet upon super-complex disassembly” (Communications Biology, 2020).
